According to patent US20220288229A1 (priority 2012, published 2022):

Test: Tolerability observations after IV dosing in the rat PK study
Assay type: in vivo
Conditions: rats, 1 mg/kg dose, three rats
Method: For PK studies, a 0.1 mg/mL solution was dosed at 10 mL/kg such that a 1 mg/kg IV bolus dose was introduced by tail vein injection into rats Following compound administration, blood was collected at 0.083 h, 0.25 h, 0.5 h, 1 h, 2 h, 4 h, 8 h, and 24 h post dose into lithium heparin coated vacuum tubes. Tubes were inverted for 5 minutes and then placed on wet ice until centrifuged for 5 minutes at 4° C. at 6000 rpm. Plasma was harvested, frozen at −80° C. and shipped to for bioanalysis on dry ice.

Question: Which “Clinical signs of toxicity post dose” value does the source give for CCCCN(CCSSC[C@@H]1NC(=O)[C@@H](Cc2ccccc2)NC(=O)[C@H](CC(=O)O)NC(=O)CNC(=O)[C@H](CCCNC(=N)N)NC1=O)C(=O)O[C@@H](C(=O)OC1C[C@@]2(O)[C@@H](OC(=O)c3ccccc3)[C@@H]3[C@]4(OC(C)=O)CO[C@@H]4C[C@H](OC)[C@@]3(C)C(=O)[C@H](OC)C(=C1C)C2(C)C)[C@@H](NC(=O)OC(C)(C)C)c1ccccc1 (some centres unmarked) [BT-568] here?
Answer: Its value is “lethargy and labored breathing were observed immediately post dose in all three rats”.

Question: What about the Mortality of the same molecule?
Answer: Its Mortality is “one of the three animals died”.
